Legend:
[1] = target: JIP3^LZ (leucine zipper domain of murine JIP3 isoform A, residues 417-487) (murine); test: SEC-MALS; JIP3^LZ on a WTC-030S5 column; 25 mM HEPES pH 7.5, 0.1 M NaCl, 1 mM TCEP; 1 ml/min
[2] = target: GST3C-JIP3^LZ (murine); test: ITC; KLC2^TPR as titrant, GST3C-JIP3^LZ in the cell; 25°C; 0.5 M NaCl, 25 mM HEPES, 5 mM MgCl2, 1 mM TCEP, pH 7.5; four experiments globally fitted with a two-stage sequential model (A + B + B → AB + B → ABB); macroscopic association constants

Chain of KLC2^TPR (murine kinesin light chain 2 TPR domain, residues 191-480) (O88448 190-479): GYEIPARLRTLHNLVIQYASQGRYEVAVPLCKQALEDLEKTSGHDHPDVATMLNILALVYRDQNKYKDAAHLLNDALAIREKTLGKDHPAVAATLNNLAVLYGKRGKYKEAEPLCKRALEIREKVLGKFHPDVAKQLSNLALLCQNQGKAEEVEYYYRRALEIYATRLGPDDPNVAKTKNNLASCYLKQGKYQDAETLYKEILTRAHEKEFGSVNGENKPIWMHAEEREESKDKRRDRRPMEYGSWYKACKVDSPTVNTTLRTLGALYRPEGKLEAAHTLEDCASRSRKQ

Substance | stoichiometry N [1] | K (macroscopic association constant), stage A + B + B → BA + B [2] | K (macroscopic association constant), stage BA + B → BAB [2] | dH, stage A + B + B → BA + B [2] | dH, stage BA + B → BAB [2]
JIP3^LZ (leucine zipper domain of murine JIP3 isoform A, residues 417-487) (domain or fragment) | 2 |  |  |  | 
KLC2^TPR (murine kinesin light chain 2 TPR domain, residues 191-480) (from UniProt O88448 190-479) (domain or fragment) |  | 0.132 µM⁻¹ | 0.132 µM⁻¹ | -18.8 kcal/mol | 0.952 kcal/mol
